Reference: patent US6287561

Molecular target: gp120 of HIV-1 RF strain (HIV-1 RF strain) (UniProt P04579)

Q: With LMW-UK (from UniProt P00749) as the substance, how does the p24 antigen level in H9 cell supernatants, percent of control read?
A: Its p24 antigen level in H9 cell supernatants, percent of control is 4 % of control.
